T1: MBNL1 (isoform encoded by exons 1-4) (UniProt Q9NR56 1-269)
T1 sequence: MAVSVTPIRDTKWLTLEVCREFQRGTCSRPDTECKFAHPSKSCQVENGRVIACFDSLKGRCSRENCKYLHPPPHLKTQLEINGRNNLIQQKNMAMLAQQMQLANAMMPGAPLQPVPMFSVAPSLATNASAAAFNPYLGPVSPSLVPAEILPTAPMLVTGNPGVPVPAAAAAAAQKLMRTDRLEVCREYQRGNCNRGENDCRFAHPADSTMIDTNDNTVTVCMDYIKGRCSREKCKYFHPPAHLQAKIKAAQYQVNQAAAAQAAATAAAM


Target: T1, MBNL1 (isoform encoded by exons 1-4)
Assay: filter binding; 0-500 nM MBNL1; 0.5 nM oligomer; FBA: FBB (50 mM Tris-HCl pH 8.0, 1 mM MgCl2, 0.05% Tween 20) with 250 mM NaCl and 15 mM KCl, 37 C, 30 min, 30 ul
Details: protein: recombinant; tags: N-terminal GST; C-terminal His6; label: radiolabeled; single strand

Binder | binding result
CAGCAGCA (XNA, all LNA, phosphodiester) [PO-LNA-CAG-8] | no binding
CAGCAGCAGC (XNA, all LNA, phosphodiester) [PO-LNA-CAG-10] | no binding

Reference: article PMC4381072, “Short antisense-locked nucleic acids (all-LNAs) correct alternative splicing abnormalities in myotonic dystrophy”
